The source of these data is US20250289899A1.

Test [1] has as its target recombinant His-tagged human FcγRIa (human) (UniProt P12314). The test can be described thus: SPR (Biacore), His-tagged FcγRIa captured on anti-His chip, antibody in solution, resonance units against antibody concentration.
The target in test [2] is recombinant His-tagged human FcγRIIIa (176-Val [V]) (human) (UniProt P08637). The test can be described thus: SPR (Biacore), His-tagged FcγRIIIa-V captured on anti-His chip, antibody in solution, resonance units against antibody concentration. In general terms: In SPR one partner is held on a chip, and binding of the other changes the refractive index at the surface.
Chain of recombinant His-tagged human FcγRIIIa (176-Val [V]) (human) (P08637 17-208 F176V limits assumed): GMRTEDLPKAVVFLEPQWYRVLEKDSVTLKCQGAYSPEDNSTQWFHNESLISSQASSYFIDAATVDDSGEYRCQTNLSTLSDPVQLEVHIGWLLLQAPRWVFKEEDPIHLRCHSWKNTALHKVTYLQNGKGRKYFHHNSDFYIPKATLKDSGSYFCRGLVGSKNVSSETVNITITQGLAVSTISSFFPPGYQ

Chain of recombinant His-tagged human FcγRIa (human) (P12314 16-288 limits assumed): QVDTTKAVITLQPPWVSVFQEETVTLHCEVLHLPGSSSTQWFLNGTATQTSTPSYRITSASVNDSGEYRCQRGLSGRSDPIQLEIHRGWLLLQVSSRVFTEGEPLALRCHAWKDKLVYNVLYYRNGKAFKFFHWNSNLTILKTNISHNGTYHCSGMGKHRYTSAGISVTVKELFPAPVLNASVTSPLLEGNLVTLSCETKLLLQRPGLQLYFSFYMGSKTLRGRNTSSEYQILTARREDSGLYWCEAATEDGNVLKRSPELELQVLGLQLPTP

With “IgG1-b12 (anti-HIV gp120 antibody, wild-type IgG1 Fc)”, the figures for the EC50 (read off the curve) in test [1] and in test [2] were 60 nM and 400 nM, respectively.
